The record followed here is PMC2719695, “Structures of native human thymidine phosphorylase and in complex with 5-iodouracil” (Biochemical and Biophysical Research Communications, 2009).

The data set deals with the molecule itself. The experiment in a line: crystal structure; native hTP without ligand, space group P2(1), 0.1 M Na-acetate pH 5.2, 25% PEG 4000, 0.1 M ammonium acetate; 3.0 Å; four chains in the asymmetric unit.

B1: Human thymidine phosphorylase (enzyme)
chain: APPAPGDFSGEGSQGLPDPSPEPKQLPELIRMKRDGGRLSEADIRGFVAAVVNGSAQGAQIGAMLMAIRLRGMDLEETSVLTQALAQSGQQLEWPEAWRQQLVDKHSTGGVGDKVSLVLAPALAACGCKVPMISGRGLGHTGGTLDKLESIPGFNVIQSPEQMQVLLDQAGCCIVGQSEQLVPADGILYAARDVTATVDSLPLITASILSKKLVEGLSALVVDVKFGGAAVFPNQEQARELAKTLVGVGASLGLRVAAALTAMDKPLGRCVGHALEVEEALLCMDGAGPPDLRDLVTTLGGALLWLSGHAGTQAQGAARVAAALDDGSALGRFERMLAAQGVDPGLARALCSGSPAERRQLLPRAREQEELLAPADGTVELVRALPLALVLHELGAGRSRAGEPLRLGVGAELLVDVGQRLRRGTPWLRVHRDGPALSGPQSRALQEALVLSDRAPFAAPSPFAELVLPPQQ
notes: Human thymidine phosphorylase (hTP, EC 2.4.2.4), cDNA clone from the Mammalian Gene Collection; residues 32-480 are seen in the crystals; Homodimer; the His tag is surmised from the Ni2+ column; Native crystal: residues 34-479 in all four copies (32, 33 and 480 in some chains); complex with 5-iodouracil: residues 35-480 in both chains; also called hTP; TP; source: E. coli …
In the case of B1, the “stoichiometry N” value turned out to be 2.
